From the Human Domainome abundance scans (Beltran et al. 2025)
± gives the uncertainty stated by the source.

B1: Transitional endoplasmic reticulum ATPase, residues 26 to 106; numbered along this chain, P55072 (parent)
chain: LIVDEAINEDNSVVSLSQPKMDELQLFRGDTVLLKGKKRREAVCIVLSDDTCSDEKIRMNRVVRNNLRVRLGDVISIQPCP

Variants of: B1
Assay: abundance fitness (aPCA) (normalised: wild type 0, dead -1); higher = more abundant; growth selection in yeast, the domain comes from the species named
Settings: Homo sapiens
With I2T the abundance fitness was 0.024 ± 0.083.
In the case of I2A, the abundance fitness is reported as -0.45 ± 0.12.
Work on I2G yielded an abundance fitness of -0.357 ± 0.066.
With I2S the abundance fitness was -0.196 ± 0.065.
In the case of I2Q, the abundance fitness is reported as -0.164 ± 0.097.
Variant I2P has an abundance fitness of -0.891 ± 0.27.
I2D gave an abundance fitness of -0.806 ± 0.17.
Work on I2R yielded an abundance fitness of -0.162 ± 0.049.
I2V showed an abundance fitness of -0.058 ± 0.068.
With I2E the abundance fitness was -0.167 ± 0.11.
Variant I2N has an abundance fitness of -0.059 ± 0.14.
Variant I2F has an abundance fitness of -0.103 ± 0.051.
I2C gave an abundance fitness of -0.162 ± 0.078.
With I2M the abundance fitness was -0.102 ± 0.075.
Variant I2W has an abundance fitness of -0.302 ± 0.11.
N8Y gave an abundance fitness of 0.006 ± 0.13.
For N8S, the abundance fitness was -0.036 ± 0.053.
For N8F, the abundance fitness was -0.083 ± 0.12.
With N8M the abundance fitness was -0.099 ± 0.068.
Work on N8W yielded an abundance fitness of -0.13 ± 0.055.
For N8C, the abundance fitness was -0.015 ± 0.058.
N8L showed an abundance fitness of -0.022 ± 0.049.
With N8R the abundance fitness was -0.083 ± 0.036.
Work on N8T yielded an abundance fitness of 0.046 ± 0.067.
With N8P the abundance fitness was -0.096 ± 0.061.
N8I showed an abundance fitness of -0.042 ± 0.14.
With N8H the abundance fitness was -0.042 ± 0.095.
With N8E the abundance fitness was 0.013 ± 0.061.
In the case of N8Q, the abundance fitness is reported as -0.025 ± 0.089.
Work on N8D yielded an abundance fitness of 0.075 ± 0.09.
With N8K the abundance fitness was -0.011 ± 0.07.
With N8G the abundance fitness was 0.022 ± 0.037.
With N8V the abundance fitness was -0.096 ± 0.062.
Variant N8A has an abundance fitness of -0.059 ± 0.059.
In the case of D4C, the abundance fitness is reported as 0.096 ± 0.073.
Variant D4V has an abundance fitness of -0.082 ± 0.048.
Variant D4S has an abundance fitness of -0.018 ± 0.05.
D4A showed an abundance fitness of -0.009 ± 0.055.
D4L showed an abundance fitness of -0.203 ± 0.047.
In the case of D4E, the abundance fitness is reported as -0.015 ± 0.095.
D4W gave an abundance fitness of -0.091 ± 0.08.
D4K gave an abundance fitness of -0.271 ± 0.13.
D4Y showed an abundance fitness of -0.32 ± 0.28.
In the case of D4I, the abundance fitness is reported as 0.052 ± 0.12.
With D4R the abundance fitness was -0.627 ± 0.062.
D4F showed an abundance fitness of -0.345 ± 0.11.
Variant D4G has an abundance fitness of -0.085 ± 0.043.
With D4H the abundance fitness was -0.04 ± 0.26.
D4N gave an abundance fitness of -0.332 ± 0.16.
Work on D4M yielded an abundance fitness of -0.041 ± 0.077.
Variant D4Q has an abundance fitness of -0.179 ± 0.071.
Work on D4T yielded an abundance fitness of -0.017 ± 0.061.
For D4P, the abundance fitness was -1.11 ± 0.19.
Work on E9Y yielded an abundance fitness of -0.129 ± 0.13.
E9Q gave an abundance fitness of -0.127 ± 0.12.
In the case of E9W, the abundance fitness is reported as -0.098 ± 0.049.
E9S showed an abundance fitness of 0.043 ± 0.061.
With E9K the abundance fitness was -0.216 ± 0.079.
For E9T, the abundance fitness was -0.107 ± 0.076.
E9D gave an abundance fitness of 0.041 ± 0.091.
E9H gave an abundance fitness of -0.109 ± 0.11.
E9C gave an abundance fitness of 0.045 ± 0.069.
For E9N, the abundance fitness was 0.184 ± 0.24.
Work on E9V yielded an abundance fitness of -0.157 ± 0.052.
Work on E9L yielded an abundance fitness of -0.087 ± 0.044.
In the case of E9P, the abundance fitness is reported as 0.048 ± 0.079.
Work on E9F yielded an abundance fitness of -0.057 ± 0.084.
For L1R, the abundance fitness was -0.744 ± 0.23.
Variant L1A has an abundance fitness of -0.126 ± 0.11.
Work on L1I yielded an abundance fitness of 0.128 ± 0.14.
In the case of L1F, the abundance fitness is reported as 0.15 ± 0.13.
L1G gave an abundance fitness of -0.662 ± 0.21.
With L1S the abundance fitness was -0.264 ± 0.075.
With L1C the abundance fitness was -0.117 ± 0.21.
Variant L1V has an abundance fitness of -0.003 ± 0.1.
L1M showed an abundance fitness of -0.046 ± 0.16.
With L1K the abundance fitness was -0.292 ± 0.31.
Variant L1Y has an abundance fitness of -0.582 ± 0.26.
With L1T the abundance fitness was -0.424 ± 0.13.
V14C showed an abundance fitness of -0.11 ± 0.069.
Work on V14Y yielded an abundance fitness of -0.803 ± 0.23.
In the case of V14L, the abundance fitness is reported as -0.763 ± 0.073.
V14A showed an abundance fitness of -0.341 ± 0.048.
